PMC4596477, “Interaction of Myosin Phosphatase Target Subunit (MYPT1) with Myosin Phosphatase-RhoA Interacting Protein (MRIP): A Role of Glutamic Acids in the Interaction” (PLoS ONE, 2015)

T1: MRIP^724-878 (myosin phosphatase-RhoA interacting protein, residues 724–878; CC2-CC4) (UniProt Q6WCQ1 724-878)
T1 construct: Tight homodimer in solution by AUC; the forward primer puts an NdeI ATG before the codons GAGCGAGGGTTTGCAGCAATG; source: E. coli BL21 (DE3), purified (chitin beads, C8 reversed-phase HPLC)
T1 sequence (looked up): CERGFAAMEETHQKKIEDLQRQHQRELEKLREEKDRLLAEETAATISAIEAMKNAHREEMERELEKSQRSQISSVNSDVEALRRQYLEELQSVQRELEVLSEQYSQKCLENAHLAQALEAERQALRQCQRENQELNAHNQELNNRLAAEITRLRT

T2: MRIP^724-878 (Homo sapiens, UniProt Q6WCQ1)
T2 construct: MRIP^724-878 (residues 724–878; CC2-CC4); made in house; host or cells: Escherichia coli BL21 (DE3)
T2 sequence (Q6WCQ1 725-879): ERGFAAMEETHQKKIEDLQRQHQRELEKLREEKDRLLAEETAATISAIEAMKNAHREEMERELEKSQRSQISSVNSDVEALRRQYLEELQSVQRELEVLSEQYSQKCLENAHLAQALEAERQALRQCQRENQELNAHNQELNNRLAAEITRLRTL


What was measured:
CCLR = experiment: AUC interaction of MRIP peptides with MYPT1 peptide CCLR (residues 924–1030); type: binding; conditions: equimolar mixtures (MRIP^545-878 14 μM each; MRIP^724-878 30 μM each; MRIP^724-837 67 μM each) and 3-, 9-fold dilutions, pH 7.4, 100 mM KCl, 20°C
Experimental: AUC was performed to examine the interactions of MRIP^545-878, MRIP^724-878, or MRIP^724-837 individually with the MYPT1 peptide (residues 924–1030) containing a putative coiled coil domain (CC) and the leucine repeat region (LR), designated as CCLR.
Fig 3 All MRIP peptides bind to the C-terminal region of MYPT1, CCLR (residues 924–1030). Concentration-normalized time derivative g(s*) graphs of the MRIP peptides by themselves and in equimolar mixtures: Lines, CCLR (30 μM); +, individual MRIP peptides by themselves (MRIP^545-878, 14 μM; MRIP^724-878, 50 μM; MRIP^724-837, 67 μM); black filled-in circles, original equimolar mixtures (MRIP^545-878, 14 μM each; MRIP^724-878, 30 μM each; MRIP^724-837, 67 μM each); open circles, 3-fold dilutions; gray filled-in circles, 9-fold dilutions.
The cDNA fragment encoding MRIP peptides were amplified using a full-length MRIP cDNA as a template with the following primer pairs: MRIP^545-878, 5’-[…]/5’[…]; MRIP^724-878, 5’-[…]/5’-[…]; MRIP^724-837, 5’-[…]/5’-[…]. The PCR products were ligated into pCR2.1-TOPO using the TA cloning system and sequenced in both directions. The IMPACT™ (Intein Mediated Purification with an Affinity Chitin-binding Tag) Kit (New England BioLabs) was used to express peptides in bacteria to obtain tag-free peptides. The PCR amplicon encoding MRIP peptides were fused in frame to the chitin binding domain of pTYB12 vector utilizing the NdeI/EcoRI restriction sites. The expression vectors for the MYPT1 peptides, CCLR (residues 924–1030), CC (residues 924–990), and LR (residues 991–1030) were constructed as described: In the reference literature, CCLR and LR were named CCLZ and LZ, respectively. Recombinant peptides were produced in Escherichia coli strain BL21 (DE3) and purified using chitin beads according to the manufacturer's protocol. For further purification, the eluent from chitin beads was loaded on a Vydac C8 reversed phase column and subjected to HPLC using an acetonitrile gradient. Purity and identity of the peptides were confirmed by polyacrylamide gel electrophoresis (PAGE) and mass spectrometry. […]

[1] = AUC of MYPT1 peptides alone (concentration dependence, self-association); type: physicochemical; conditions: CC alone, 107 μM and 3-, 9-fold dilutions, MRIP^724-878 alone, 50 μM and 3-, pH 7.4, 20°C
Text: To determine the minimal MRIP-binding region of MYPT1, AUC was employed to examine interactions between sub-domains of CCLR, CC (residues 924–990) and LR (residues 991–1030) with MRIP^724-878 (Fig 4A). CC is the putative coiled coil domain and LR contains 16 upstream amino acid residues (residues 991–1006) in addition to the leucine repeat (residues 1007–1028). MRIP^724-878 was chosen because of its good fit to a single component, single-species model. […] Global fitting of the mixture to a two-component model produced a good fit and the RMSD of the fit was 0.010 (Fig 4B; Fitting of CC).
Fig 4 LR contains sufficient residues for the MYPT1/MRIP interaction. […] CC; Concentration-normalized time derivative g(s*) plots of CC, MRIP^724-878, and equimolar mixtures of the two peptides: Black filled-in circles, an original CC alone (107 μM); dark gray filled-in circles, a 3-fold dilution of CC alone; light gray filled-in circles, a 9-fold dilution of CC alone; black filled-in triangles, an original MRIP^724-878 alone (50 μM); dark gray filled-in triangles, a 3-fold dilution of MRIP^724-878 alone; light gray filled-in triangles, a 9-fold dilution of MRIP^724-878 alone; a black line, an original equimolar mixture of MRIP^724-878/CC (50 μM each): a dark gray line, a 3-fold dilution of the mixture; a light gray line, a 9-fold dilution of the mixture. […]

LR = experiment: SPR, MRIP^724-878 as analyte over immobilized LR; type: binding; conditions: Biacore 3000, 25°C, analyte MRIP^724-878 (dimeric) 85.6–0.7 μM, LR immobilized (244.8 RU), nebulin-derived peptide reference, 50 mM potassium phosphate pH 7.4, 100 mM KCl, steady-state affinity, mean and standard deviation, 6 experiments
Experimental: (§1) Analytes CCLR, CC, LR: Interactions between analytes, CCLR (167–1 μM), CC (318–10 μM), and LR (569–5 μM) with immobilized ligand, MRIP^724-878 (1800 RU) after correction for nonspecific binding using G-actin (2230 RU). Shown is a representative out of 9 experiments for CCLR and 8 for LR in each, duplicates or triplicates. Insets show fittings of steady-state affinity. Ligand LR: Interaction of analyte, MRIP^724-878 (85.6–0.7 μM) with immobilized ligand, LR (244.8 RU) after correction for nonspecific binding using a nebulin-derived peptide (600 RU). Shown is a representative out of 6 experiments.
This could be explained by the fact that free, solution-based MRIP^724-878 might have preserved homodimers better than the amine coupled. Consequently, we speculated that the MRIP^724-878 dimer might have higher MYPT1-binding affinity than its monomer.
(§2) Binding analyses of SPR were conducted on a Biacore 3000 (GE Healthcare) at 25°C. Sensor chips and reagents for immobilization (1-ethyl-3-(3-dimethylaminopropyl) carbodiimide, N-hydroxyl-succinimide, and ethanolamine) were purchased from GE Healthcare. Peptides were immobilized onto a CM5 sensor chip at 232–5841 resonance units (RU) using amine coupling. Binding studies were done using two-fold serial dilutions of the peptides in 50 mM potassium phosphate buffer (pH 7.4) containing 100 mM KCl. […]

[2] = AUC sedimentation velocity of MRIP peptides alone (molar mass, sedimentation coefficient, oligomeric state); type: physicochemical
Text: The RMSD of the fit was 0.008.
The cDNA fragment encoding MRIP peptides were amplified using a full-length MRIP cDNA as a template with the following primer pairs: MRIP^545-878, 5’-[…]/5’[…]; MRIP^724-878, 5’-[…]/5’-[…]; MRIP^724-837, 5’-[…]/5’-[…]. The PCR products were ligated into pCR2.1-TOPO using the TA cloning system and sequenced in both directions. The IMPACT™ (Intein Mediated Purification with an Affinity Chitin-binding Tag) Kit (New England BioLabs) was used to express peptides in bacteria to obtain tag-free peptides. The PCR amplicon encoding MRIP peptides were fused in frame to the chitin binding domain of pTYB12 vector utilizing the NdeI/EcoRI restriction sites. The expression vectors for the MYPT1 peptides, CCLR (residues 924–1030), CC (residues 924–990), and LR (residues 991–1030) were constructed as described: In the reference literature, CCLR and LR were named CCLZ and LZ, respectively. Recombinant peptides were produced in Escherichia coli strain BL21 (DE3) and purified using chitin beads according to the manufacturer's protocol. For further purification, the eluent from chitin beads was loaded on a Vydac C8 reversed phase column and subjected to HPLC using an acetonitrile gradient. Purity and identity of the peptides were confirmed by polyacrylamide gel electrophoresis (PAGE) and mass spectrometry. For the mutagenesis study of LR, the wild-type and mutant LR peptides were synthesized, purified by reverse-phase HPLC, and lyophilized to dryness at the peptide core in Boston Biomedical Research Institute.
Sedimentation velocity experiments were done on a Beckman Instruments Optima XL-I analytical ultracentrifuge equipped with Rayleigh optics. The cells were equipped with sapphire windows and 12 mm charcoal-filled Epon centerpieces. Apparent sedimentation coefficient distribution patterns were computed by the time derivative method. Peptides were dialyzed against 50 mM potassium phosphate buffer (pH 7.4) containing 100 mM KCl, and 1 mM DTT at 4°C overnight and then subjected to AUC at 50,000 rpm and 20°C. Molar mass was computed from sedimentation velocity profiles using SedAnal, which uses a nonlinear least-squares curve fitting algorithm to fit data to solutions of the differential equation (the Lamm equation) describing sedimentation. Fits were performed on time difference data to remove the time-independent systematic baseline components. Values of s and D produced by the fitting procedure were substituted into the Svedberg equation to obtain the molar mass of the protein, M: M=RT/(1−ν¯ρ)s20,wo/D20,wo where ρ is the density of the buffer and ν¯ is the partial specific volume of the protein. Sednterp was employed to compute values of ρ and ν¯ from the amino acid sequence.

[3] = molecular target: T1, MRIP^724-878 (myosin phosphatase-RhoA …); experiment: SPR; Biacore 3000, 25°C; MRIP^724-878 immobilised (1800 RU) by amine coupling on CM5, analytes CCLR (167–1 μM), CC (318–10 μM), LR (569–5 μM); reference surface G-actin; 50 mM potassium phosphate pH 7.4, 100 mM KCl; steady-state affinity fit; conditions: both partners purified
[4] = ref [14]; cited from earlier work
Experimental: The concentration ranges of the MRIP peptides in the mixtures overlap with those of the MRIP peptides by themselves (Fig 2). Thus, the greater s* values of the MRIP/MYPT1 mixtures than those of the individual MRIP peptides indicate that MRIP^545-878 monomer, MRIP^724-878 dimer, and the mixture of monomer and dimer of MRIP^724-837 bind to CCLR. […] To obtain the binding stoichiometry, AUC was performed using MRIP^724-878/CCLR mixtures at different ratios of the two peptides. MRIP^724-878 was chosen because the AUC stu ... || To obtain the binding stoichiometry, a series of sedimentation equilibrium experiments was performed. MRIP^724-878 was chosen due to its being a single species. Owing to the absence of aromatic residues, LR was employed. AUC was conducted using MRIP^724-878 alone, LR alone, the 1:1 mixture of MRIP^724-878/LR, and the 1:3 mixture of MRIP^724-878/LR. Sedimentation data were collected both at 280 nm to detect only MRIP^724-878 and at 220 nm to detect both.

MRIP^724-878 = molecular target: T2, MRIP^724-878; experiment: SPR, MYPT1 peptides as analytes over immobilized MRIP^724-878; type: binding; conditions: 25°C, pH 7.4, CCLR 167–1 μM, CC 318–10 μM, LR 569–5 μM
Experimental: To corroborate the results from AUC studies, SPR was employed. […] Equilibrium K d values were obtained by nonlinear curve fitting of reference-corrected curves using the steady-state affinity fitting model in BIAevaluation version 4–1.
as §1, §2

binding to CCLR (shift in g(s*) curves) (CCLR)	Kd (LR)	Kd [3]	complex formation with immobilized MRIP^724-878 (MRIP^724-878)	Molecule	concentration dependence of g(s*) curves [1]	molar mass ([2]; AUC sedimentation velocity, SedAnal global fit to single component, single-species ideal model, 4.7–42.3 μM, 50 mM potassium phosphate pH 7.4, 100 mM KCl, 1 mM DTT, 20°C, CL 0.95)	oligomeric state in solution ([2]; AUC sedimentation velocity, pH 7.4, 100 mM KCl, 20°C)	sedimentation coefficient ([2]; AUC sedimentation velocity, single component, single-species ideal model, 4.7–42.3 μM, pH 7.4, 100 mM KCl, 20°C, CL 0.95)	concentration dependence of g(s*) curves ([2]; AUC, MRIP^545-878 1.5–13.6 μM, MRIP^724-878 4.7–42.3 μM, MRIP^724-837 7.5–67.1 μM, pH 7.4, 20°C)	self-association [4]
bind to CCLR	40 ± 19 µM			MRIP^724-878: recombinant tag-free MRIP peptide, residues 724–878; CC2-CC4 (protein, left off: chitin-binding domain (IMPACT kit, pTYB12), N-terminal, cleaved, recombinant tag-free MRIP peptide, residues 724–878; CC2-CC4) CERGFAAMEETHQKKIEDLQRQHQRELEKLREEKDRLLAEETAATISAIEAMKNAHREEMERELEKSQRSQISSVNSDVEALRRQYLEELQSVQRELEVLSEQYSQKCLENAHLAQALEAERQALRQCQRENQELNAHNQELNNRLAAEITRLRT	superimposable, indicating concentration-independence	38.2±0.3 kDa	forms a tight dimer in solution	2.007±0.002 S	no-concentration dependence and the presence of one species in solution	
		14 µM	formed complexes	CCLR, MYPT1 peptide (residues 924–1030) containing a putative coiled coil domain (CC) and the leucine repeat region (LR) (domain or fragment, UniProt O14974 924-1030, looked up, myosin phosphatase target subunit (MYPT1); also called C-terminal region of MYPT1; source: E. coli BL21 (DE3), purified (chitin beads, C8 reversed-phase HPLC)) LEKDDSTDFKKLYEQILAENEKLKAQLHDTNMELTDLKLQLEKATQRQERFADRSLLEMEKRERRALERRISEMEEELKMLPDLKADNQRLKDENGALIRVISKLSK						reversible self-association
